Experimental data taken from the supplement of paper PMC10567573.

B1: ACSBG2 (parent)
chain: FAQADALKGTLVSTLKEVKPTVFI

Variants of: B1
Experiment: protein stability index of a GFP-peptide fusion (GPS, HEK-293T) (PSI 1-6); higher = more stable
Settings: c terminus: a fixed tail appended
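Further: lentivirally expressed fusions sorted by FACS into six bins by GFP to DsRed ratio, PSI derived from sequencing read proportions per bin multiplied by bin number.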

Protein stability index: each site, then its substitutions
K8: A 2.12 | R 1.8 | N 1.59 | S 1.71 | T 3.3 | D 1.9 | M 1.22 | Y 3 | Q 2.39 | P 1.4 | E 1.41 | C 1.85 | F 2.34 | H 2.74 | G 2.31
T10: K 1.98 | R 2.62 | S 1.55 | D 2.07 | F 2.23 | A 2.04 | H 2.91 | M 2.76 | G 1.46 | W 2.36 | I 2.96 | Y 3.48 | V 2.24 | N 1.61 | C 1.81 | Q 1.79 | P 1.14 | E 1.65
K16: S 2.25 | Q 1.56 | R 1.45 | H 2.75 | E 2.38 | D 1.65 | A 1.97 | F 2.41 | W 2.4 | T 3.25 | V 2.8 | P 2.41 | C 2.34
G9: W 3.93 | C 2.73 | T 1.38 | Y 1.78 | E 1.5 | N 1.27 | V 2.61 | S 2.84 | L 2.72 | H 1.55 | D 1.59 | M 2.03 | I 4.73 | A 2.24 | Q 2.52 | P 2.01 | F 2.24 | R 2.76 | K 2.32
A4: Y 1.52 | F 2.18 | E 2.77 | G 2.44 | Q 1.44 | D 2.74 | N 2.14 | H 2.31 | R 2.19 | V 1.48 | I 1.66 | C 2.52 | M 2.05 | K 2.03 | T 1.94 | L 1.69 | S 1.69 | P 3.08
A6: D 1.71 | I 1.34 | S 2.08 | T 2.21 | V 2.58 | P 1.69 | Y 3.07 | W 3.31 | N 1.58 | R 1.67 | E 1.95 | Q 1.54 | F 2.84 | M 1.9 | C 1.28 | G 1.57 | H 1.61 | K 2.23
Q3: R 2.92 | L 2.44 | N 3.49 | E 1.74 | G 3.16 | W 2.13 | D 1.36 | M 3.51 | K 2.06 | S 1.28 | T 1.8 | F 3.71 | Y 1.45 | C 1.4 | A 1.86 | I 4.29 | V 3.21
E17: R 1.99 | D 1.48 | G 1.95 | A 1.03 | Q 1.73 | P 1.83 | N 3.2 | S 1.81 | V 2.23 | F 2.07 | L 2.51 | I 1.86 | M 2.29 | C 2.06 | H 3.49 | T 3.12 | K 1.45
D5: F 3.26 | H 1.3 | S 2.67 | E 1.26 | N 1.9 | M 2.98 | R 1.55 | Q 2.4 | Y 1.44 | K 1.69 | T 2.12 | V 2.08 | C 1.35 | I 2.7 | P 1.9 | A 3.35
V12: T 1.63 | C 1.76 | E 1.89 | I 2.26 | G 1.95 | A 1.64 | M 1.66 | L 1.25 | D 1.81 | N 1.6 | R 2.08 | S 1.34 | K 3.87 | P 1.85 | Q 1.52 | H 2.12
T14: I 2.22 | A 1.8 | N 2.26 | F 2.64 | Q 1.95 | S 1.08 | L 1.51 | E 1.26 | P 1.23 | Y 3.04 | K 2.03 | H 2.27 | M 1.32 | D 1.88 | V 2.05
V18: R 1.89 | K 1.92 | P 1.74 | H 1.28 | E 5.23 | S 1.98 | Q 2.04 | G 1.79 | I 2.48 | D 1.68 | W 3.71 | T 1.26 | M 1.44 | L 1.04 | A 2.63 | N 2.43 | C 3.06
L11: G 1.51 | R 2.13 | T 2.78 | N 2.1 | K 1.67 | F 1.7 | E 2.88 | C 1.72 | D 2.02 | M 2.41 | I 2.55 | H 1.72 | V 2.08 | S 1.61 | A 1.88 | P 1.84 | Q 2.88
P20: F 2.4 | K 1.25 | L 3.23 | W 2.33 | Q 2.13 | Y 2.68 | D 1.51 | R 2.28 | S 2.9 | G 2.47 | V 1.91 | N 2.42
S13: T 2.04 | Q 1.39 | R 1.46 | P 1.41 | G 1.04 | E 1.27 | K 3.44 | H 1.84 | V 4.44 | I 2.4 | F 2.53 | Y 3.19 | A 2.1 | C 1.93 | D 1.85 | N 2.01 | L 2.05 | M 3.57
L7: N 1.73 | A 2.1 | G 1.3 | Q 2.11 | H 2.16 | V 1.91 | I 1.86 | K 2.37 | P 2.05 | M 2.73 | C 1.52 | T 2.02 | F 3.08 | D 2.12 | R 2.07 | S 1.67 | E 2.5
A2: N 1.45 | E 2.05 | C 1.85 | L 2.46 | S 1.76 | M 1.79 | K 2.49 | F 2.79 | Q 1.64 | D 2.11 | R 1.42 | P 1.48 | H 2.08 | I 1.22 | G 2.13 | T 1.56
T21: A 1.36 | D 1.82 | E 1.47
F1: R 1.83 | D 2.43 | W 1.46 | G 2.46 | E 3.21 | V 1.54 | K 2.25 | T 2.33 | Q 3.73 | N 2.59 | Y 1.96 | L 2 | H 1.98 | M 2.14 | I 2.25 | A 2.26 | C 1.3 | S 2 | P 2.31
L15: A 2.51 | D 2.19 | G 1.4 | K 1.8 | W 1.66 | R 2.1 | Q 2.02 | P 2 | T 1.97 | Y 1.78 | V 1.06 | M 1.6 | E 2.39 | S 1.96 | N 1.77 | F 1.77 | H 1.93
K19: A 2.49 | S 2.45 | E 1.48 | R 1.02 | Q 2.08 | H 1.04 | N 1.48 | C 2.65 | G 3.46 | T 2.53 | M 3.1 | D 2.26 | W 1.99 | F 3.16 | Y 2.36 | P 2.84
